Test results published in patent publication US20250164464A1, “LIVER ORGANOID-DERIVED CULTURED HEPATOCYTES” (OSAKA UNIVERSITY, priority 2022, published 2025).

Columns and labels:
CYP1A2 = experiment: Induction of drug-metabolizing enzyme in hepatocytes (2D differentiated cells) (Example 6); type: cell-based, human; settings: 50 μM for 24 hours; added on third, sixth or ninth day of culture; control DMSO
Protocol: (§1) In this Example, the hepatocytes (2D differentiated cells) of the present invention were evaluated for the induction of a drug-metabolizing enzyme on the third day, sixth day, and ninth day of their culture (FIG. 6A). […] After that, the ΔCt value ((Ct value of GAPDH)-(Ct value of target gene)) of each CYP gene was measured for each cell. As a control, dimethylsulfoxide (DMSO) serving as a solvent for each metabolizing enzyme activator was added thereto.

CYP2B6 = experiment: as above; settings: 1 mM for 24 hours; added on third, sixth or ninth day of culture; control DMSO
Protocol: as §1

hepatic organoid cells [1] = experiment: Screening of monolayer culture conditions, sixth day of culture, quantitative RT-PCR (Example 3); type: cell-based, human; settings: versus third day of culture
Protocol: Culture conditions up to the sixth day of culture when hepatic organoid cells were subjected to monolayer culture with a HCM™ medium having added thereto each of various factors were investigated in the same manner as in each of Examples 1 and 2.
The hepatic organoid cells were seeded at 3.0×10^5 cells/well on a collagen-coated 48-well plate, and were differentiated with the HCM™ medium having added thereto the EMTi and BMP7 (50 ng/mL) described in Example 2 until the third day of the culture. […] The respective gene expression levels of ALB and CYP3A4 serving as liver cell markers after 6 days of two-dimensional culture were analyzed by a quantitative RT-PCR method. As a comparative example, the gene expression levels of PHHs cultured only with the HCM™ medium and iPS-HLCs were also identified in the same manner as in Example 1.
(§2) The respective gene expression levels of ALB and CYP3A4 were measured by a quantitative RT-PCR method for the respective cells after their culture. A gene expression level when the hepatic organoid cells were cultured only with the HCM™ medium having added thereto the above-mentioned EMTi was defined as a vehicle. Comparison was performed while the gene expression level of ALB of the cells cultured by using the EMTi and BMP7 (50 ng/mL) in combination on the third day of the culture was defined as 1.0.

hepatic organoid cells [2] = experiment: Screening of monolayer culture conditions, ninth day of culture, quantitative RT-PCR (Example 4); type: cell-based, human; settings: EMTi and FGF19 (100 ng/mL)
Protocol: The medium was replaced with a new one on the third day of the culture, and the cells were differentiated with the HCM™ medium having added thereto the EMTi and FGF19 (100 ng/mL) until the sixth day of the culture.
The respective gene expression levels of ALB and CYP3A4 serving as liver cell markers after 9 days of two-dimensional culture were analyzed by a quantitative RT-PCR method.
as §2, with “with the HCM™ medium having added thereto” for “by using”, “FGF19 (100” for “BMP7 (50”, “ng/mL)” for “ng/mL) in combination”, “sixth” for “third”

hepatic organoid cells [3] = experiment: Screening of monolayer culture conditions, third day of culture, EMTi and humoral factors, quantitative RT-PCR (Example 2); type: cell-based, human; settings: combined use of EMTi and BMP7 (50 ng/mL); 72 hours; vehicle (EMTi only)=1.0

**Q.** `COc1ccc2[nH]c([S+]([O-])Cc3ncc(C)c(OC)c3C)nc2c1` (stereo not shown) [omeprazole] was tested. Which “gene expression level of CYP1A2 (ΔCt value)” value (CYP1A2) did it give?
**A.** further enhanced

**Q.** Which “gene expression level of CYP2B6 (ΔCt value)” value (CYP2B6) does the source give for `CCC1(c2ccccc2)C(=O)NC(=O)NC1=O` [phenobarbital] here?
**A.** further enhanced

**Q.** With fibroblast growth factor 19 [FGF19] as the molecule, how does the “gene expression level of CYP3A4 increased by a factor of” value (hepatic organoid cells [1]; EMTi and FGF19 (100 ng/ml)) read?
**A.** about 95

**Q.** And the “gene expression level of CYP3A4 increased by a factor of” value (hepatic organoid cells [2]; versus sixth day of culture)?
**A.** about 40

**Q.** And the “gene expression level of ALB” value (hepatic organoid cells [2]; versus sixth day of culture (=1.0))?
**A.** increasing tendency

B1: bone morphogenetic protein 7 (protein, UniProt P18075 293-431, looked up)
Bone morphogenetic protein 7: STGSKQRSQNRSKTPKNQEALRMANVAENSSSDQRQACKKHELYVSFRDLGWQDWIIAPEGYAAYYCEGECAFPLNSYMNATNHAIVQTLVHFINPETVPKPCCAPTQLNAISVLYFDDSSNVILKKYRNMVVRACGCH
notes: recombinant protein added as a humoral factor
**Q.** Which results are given for B1?
**A.** gene expression level of CYP3A4 increased by a factor of (hepatic organoid cells [3]): 50; gene expression level of CYP3A4 increased by a factor of (hepatic organoid cells [1]; EMTi and BMP7 (50 ng/ml)): about 50
